In the domain aggregation screens of Martell et al. (2025):

assay: soluble fraction after stress (log2 fold change); higher = more stays soluble; pooled small domains, quantitative proteomics; conditions: stress: 75 degC
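Note: 20 min heating vs room temperature control held 20 min.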

First: HMQARSQQTIQTLFKAAAQILDKEGEAGLSTNKVAAAAGFSIGTLYQYFPSKEVLIQAMAAR
Second: HMQASISVDEAKSIALNYAKFTADQVVYTKSELDYDDGRAEYEIEFYAGGKEYSFTIDAVSGTVLEMEI
The “soluble fraction (log2)” value of the first is higher: 0.219 for the first, -2.26 for the second.

“HMQATDEEIENFTSSAITAYKLTKEEGYIISMRDMKPIMEIVKTEYPMANGKVVSKVMNNYING” and “HMQDELSSSVIEEAVVVLLLRAANIDGKKDEQEIEAIKRLIIQQFNYDEEKADILITSASEK” are within 0.2 log units of each other in “soluble fraction (log2)” value: 0.0264 for the first, 0.0178 for the second.

Compared with “HMQDGTILPGQKTAIRSLATSGGYDSQDLDTYLATTYGKSIDGLTRTEGADVIKAFQAGTVAK”, “HMQDLEIKINLGMTYYEVREAIGSPDIIDKINQYGRDFQMWTYYIDDKTKRYYFEDHLLTKI” is lower in “soluble fraction (log2)” value: 0.436 for the first, -2.84 for the second.

Going from “HMQDLPPIHLSRGMTDYTLVRSRRRTLSMELKRDGTVVVHAPLRLGVEKIDAFVAAHEAWLARARTRQAER” to “HMQDNPELVARIEKAAARGTSSMSDWERSFMGSLLDSAKKWGRLTAKQHEVFQRIEKKTDPAHQAAVS”, the “soluble fraction (log2)” value rises from -2.59 to 0.111.

Going from “HMQDPRITRTRGLILQAFDALLVEKGFHALSVQAIAGRAGINRATFYAHFADKYALLDTSIQE” to “HMQDREKNIAEGRDIIEHEFMRLGISLSRYDLDGLASKLNVKAGDDVLAGVGAGDIRVSQIISQLG”, the “soluble fraction (log2)” value falls from 0.227 to -0.0551.

Compared with “HMQDTVKNVFGAFTIFTDKPFAIGDTINVNGLEGTVVDVGMRSTQILGYDRRITSYPNYKITDSSIVNISS”, “HMQDVVFTVDKDQTGAEIGDMLYEKGIISSPTTFRLALRLTGSMDKLQQGYYQIPQNASLRQVIALLQKG” is lower in “soluble fraction (log2)” value: -0.0554 for the first, -0.35 for the second.

Going from “HMQDYYTQSDFARYLEDKGIHFPQNKIAVYRKRGKFPKEDLVVAGTPYWSKYTVESFAKHLLEQQN” to “HMQEAATSLNAKILAKLRENNGTLAVSDKSDPALISSLFGVSKGNFKKAIGALYKNGQIVIHADRIEL”, the “soluble fraction (log2)” value falls from 0.254 to -0.813.

First: HMQEDQKTSIFDIEGVEKGVASVLSSIKVEIVSDLLEADMDDILKSGKISEDDLDGVYEAVQNFVER
Second: HMQELNDQQRLAILNEWNNRATNPPSLLELVRVAFPDAEGADGRSWHGKKVKEFLSTRQIKARAS
The “soluble fraction (log2)” value of the first is higher: 0.41 for the first, 0.0119 for the second.

Going from “HMQENFYMILESEERRVLDVLVADQPESVATFLKLVSPFPNYKIILEHINEKALDFYEETVI” to “HMQESTILPAQKSAISSLATSAGFSSENLKRYLLQNYGVDLKDLTRSQGAEVIKAFQSGNVSKP”, the “soluble fraction (log2)” value rises from -0.35 to 0.281.

First: HMQETPAMLAMKELPTEDEQRIYMMLQEDYDSVLLVKTIRNAFSQNPQLTRQQLLPIILTWLMT
Second: HMQGATVYIKSDDIGKTTNEQGSFNFDKLKKNRYTLEISFIGYETKNLQAYTDRENIVQLNRKS
The “soluble fraction (log2)” value of the first is lower: -1.33 for the first, -0.307 for the second.

“HMQGEVPYSQFLTEVDRGDVQSVVIEGNNISGFYKNSSTAFTVVAPDDPKLVERLMEQGVEVKARPV” and “HMQGEVVTNRSVIDMSRAGLSADIIRAKILRSDTNFDVTAKALIELKESGVPDDIIALMLERADS” are within 0.2 log units of each other in “soluble fraction (log2)” value: 0.112 for the first, 0.00604 for the second.

First: HMQGIPVTVTAERANLRSGPGTSFDKLGQVVQGDVLTLLEVQNDWYKVKTAEGKTAFVAAYLVNSP
Second: HMQGQADFTQGIANFTQYPVGSRITVFTLEGRRVAVVEIGKDGTAQLDMRNKPAGVYIVNTGKQSFKWLK
The “soluble fraction (log2)” value of the first is higher: -0.269 for the first, -2.65 for the second.

Compared with “HMQGRIYLNPDLAEKLRAQYAAYPHWSYLLHTENLGALVRKTESLGPMPSYSTILRYMHANDMRKRNKP”, “HMQGVNLTETEKNFIAQVLSPLLKQGQSLYQIRTNHPEIKLSVKTLYTYIESGIFKESGINNFSLRRQ” is higher in “soluble fraction (log2)” value: -1.78 for the first, -0.122 for the second.

Compared with “HMQILNVFSKHGIKPISPQIGDKFDPQLHEAMFEAPVPGTKAGDIIEVSSEGFMLYDRLLRPAHVGVSSN”, “HMQILPAFLPENPELRARLANHSLEELTEILKQYKTLHNSTDVDTVKRAIRAIEIEEYYAVHPV” is lower in “soluble fraction (log2)” value: -0.0306 for the first, -0.731 for the second.

Compared with “HMQINLKQSSDEELVKIITVQVHHYEPHTVKAAEAEIERRGIDKMRMAHLVKKVAQENTAVQEIQD”, “HMQISDDSELIKIVDNILANSQKQIDDYHNGKTNLFGFFVGQVMKETKGKANPVKVNEILKDKL” is lower in “soluble fraction (log2)” value: 0.297 for the first, -0.00828 for the second.

Going from “HMQISDSSLIAKTVATVILENPEAVSDYLGGKHSVVRFMVGQIMKKTQGKANPKMATEMLETALNDL” to “HMQISDTTELSTLITKVLSEQSDALVDFKNPKKQKQVIGYLTGQVLRASQGKANPGLVRSLLEEQLSALDS”, the “soluble fraction (log2)” value rises from -1.88 to 0.0724.

“HMQISMQNIASVKIDDLSDEQIQEFSTKYTAAGYSFPDVENVAKQKGMPSSEIEKLRQRVLTAQNTQEK” and “HMQISSSEVLEKVVDEILSANPKSIEDYKNGKLQAAGFLMGQVMKATKGQANPAVAKELIEAKLKD” are within 0.2 log units of each other in “soluble fraction (log2)” value: 0.283 for the first, 0.461 for the second.

Compared with “HMQISYDVPNLIGKSYEEVMTDPSILGEHFTVVLGETKTDEDTDAGVILHQDPAADSKVQDEVTPITVTVS”, “HMQITDTEAIATTLDEIIAANPKEWERLKAGQEQLVKFFVGQVMRVTKGRANPQVVNDLLKERL” is lower in “soluble fraction (log2)” value: 0.374 for the first, -0.346 for the second.

Compared with “HMQITNEGQIKLVISEVLNENQEQKKQYLSGKEQVLGYLIGKVMQKTKGKANPKLVNDLMIKELS”, “HMQITSTDEIEKMIDELIAANPEQTKQYQNGNHKVAGWFVGQMMKASKGKANPQMVNNLLQKKL” is higher in “soluble fraction (log2)” value: -0.135 for the first, 0.278 for the second.

“HMQITTVSPKNYAEAELIGQRFREGNPVVMDLSKLDSDLGQRLVDFASGLVFALNGTVERIAKKVFLLSP” and “HMQIVHKHLQLQPDQGALRAALYSHKAVVAEQVNEQGAINLEIKLAESDFLRLLKSSGLKLQDLVSLS” are within 0.2 log units of each other in “soluble fraction (log2)” value: -1.37 for the first, -1.35 for the second.

Compared with “HMQKAQEYILVDIKGEVQTPGVYKLPVNSRVIDAIEASGGLTKKAVTTYINLSKTLKDENVIIINKKSEL”, “HMQKITPDNWTYIRSLIRQKWSPDQIDQWLKKHPDVGFTVSRETIYQYVKEDRQKDGDLYLSLRRAGKSY” is lower in “soluble fraction (log2)” value: -0.59 for the first, -2.18 for the second.

“HMQKLKINKYKDPKGEIRYYIASTIRNGNKSSTHNLLSLGKHSDLLKEHSDVEAYLKERLNEAMESGI” and “HMQKPDIEVDFAEGDMVVVTGGAWKDTAGVITGINMQKQTVTINVELFGRETPVEISFTEIKKA” are within 0.2 log units of each other in “soluble fraction (log2)” value: -0.0843 for the first, -0.117 for the second.

Going from “HMQKVPDAFKAEQVQTLITRLGVSRAELARTLDVSLSTVNKWASGAVEPKGSALVLLKVLWMHGFKAL” to “HMQLDDDQKEELILKLIDSLDTTKKGAPLTELAREAAKSNIGESELEEITTSLLDKGLVYEPTIGKMKR”, the “soluble fraction (log2)” value rises from -2.85 to 0.394.

“HMQLDLNENEKIIFEILQNNKTMQLSNLKTQTELSNKGWDKAIKSLTKQGLAKVSKIDNELIVEFL” and “HMQLKFTDLRKEILRMIWEGHGPQKAYDLLNKLQQTNPSAKPATVYRALDFLIGNGFIHKVASLNAFVG” are within 0.2 log units of each other in “soluble fraction (log2)” value: -0.466 for the first, -0.59 for the second.

First: HMQLKKDTILSYIEEKLIDSYNSNKGFTTQEISVALNMQRTNVSAILNNLVKENKLVKTKGKPVRYFLSG
Second: HMQLTPAQHAILAHALEHSDGKIVWFPDNIKGGARKKVLDGLLNRALITTDGTDWFVAAEGYDAMGR
The “soluble fraction (log2)” value of the first is lower: -0.636 for the first, -0.386 for the second.

Going from “HMQLTVAVLIKNISKGQVISQGFLGFEARPERQIRGAYTNISEVLGRKAKSNIAVGTILKARHLDT” to “HMQNAMQKELIDAFQKAYPDLDITKIELVYGTYYEVEAMNSTTEFTYRYDQNSKTFILAEQDNADP”, the “soluble fraction (log2)” value rises from -2.87 to -0.203.

First: HMQNELAEARSQLAERKNIDQAKLILMKKRNISEPEAYKLLRSHAMQTNRRVAEVAESIITAESLLG
Second: HMQNGNLVDVYLNWRGKYYAIKMFFPNSKMPRRSDVQDQIVKVYPDARVQSFQVSKYVPGQPFL
The “soluble fraction (log2)” value of the first is higher: -0.0692 for the first, -2.62 for the second.

First: HMQNLSELAYVNLRDALMQGQMKPGEELPLRPISRSFGISATPMREALLRLVTESALEMDSRGRISVP
Second: HMQNPYDTLGVSRDSTDAEIKKAYRKLAMEHHPDKGGDSQRFAEINNAYDNIKDMSSRQNFENDPSNFQ
The “soluble fraction (log2)” value of the first is lower: -0.347 for the first, 0.266 for the second.

Going from “HMQNVFARKNLTSVSVDKLGEEEILLFKQSFESKNLTSSEALRDLSKKGMSEAELRKLKVRLTQL” to “HMQNWFADPKFEMFEDYGDAQSFYDTETKNIYVVMAEYGQKGSNTIQEITPDSEEYIPNYEKYKEYMENK”, the “soluble fraction (log2)” value rises from -0.287 to 0.214.

First: HMQNYLEFIGNELKALTSIPSPSGYTKDVAAYLMKTLSDMGYEPQLSNKGNVFVTIGGEGNPLVLAAHVD
Second: HMQNYLEVLRLHELGMGQRKIAQQVHTSRDTIRKIIAIAENQGLNYSNLIGKTDNELSKVFG
The “soluble fraction (log2)” value of the first is higher: 0.0285 for the first, -0.622 for the second.

“HMQPAGEGAILRYLSSGAVKGIGPVMAREIVRRFGTDTFRVMEQEPEKLLKVKGITEQRLQTIMESYQD” and “HMQPDPAFVAWVDANPWYKENRTLRALVHDYAEEVKRQEPALIGTAFLDRVKQLVQSEHPELFD” are within 0.2 log units of each other in “soluble fraction (log2)” value: -0.198 for the first, -0.234 for the second.

First: HMQPETIEDATNLYLEAARATLQLIEQNNVIARDVKRLLEHLDNDMARIETLLAEMLSRRDHWLRHIH
Second: HMQPIQPNQAKYLDGLSSKYKGKGNHSQAAQLTALRDALNAGDHAKAREIYDKLDYEPQAEAAH
The “soluble fraction (log2)” value of the first is lower: 0.148 for the first, 0.364 for the second.

Compared with “HMQPNVTRERILAAAMTVFAQKGWQKTSLDEVAAAAGMTKGAIYWHFRNKNDLFFALLDARLQRD”, “HMQQAVTMQKPGRLLRNADGNGGAVRDLDVGMMLYPTGNRSELMWEVDDELGNRGWVNSTLFGLS” is higher in “soluble fraction (log2)” value: -2.16 for the first, 0.013 for the second.

First: HMQQDGSSSLGENMLNQELQARGVVPSEIPQEVWERVIQEAGKKSKREIYADIGLGRSLAAGFAQRLAA
Second: HMQQDVLKLKSGGNYKGEYINIESAYVLFKPEGGNATQRIKVNEIQMLKLADGTEVIFGGRVK
The “soluble fraction (log2)” value of the first is higher: 0.145 for the first, -0.237 for the second.

Going from “HMQQEPNFYIVDGNTNQIVDRYYAPDSNVAHQYLGQWRQQHDPQETGNYRYGRLSSETEERYRNLAA” to “HMQQFGANVRLIRKARQMSIKQLSELSGVSQTMISEVERGLKIPTIDVAGKIAAALGIDLTNLMG”, the “soluble fraction (log2)” value falls from 0.22 to -2.16.

Compared with “HMQQIQILPDGKIKLPDLSGTNMREAIEILHKGGLRMKPYGSGNAYQQKPAAGETVASGTTVEVLSL”, “HMQQLAEQIPTDRPYISIAEAVVLFGISRDTIYRQIRKGNIPAVNLGERLTRISRIHIEAMFPKV” is lower in “soluble fraction (log2)” value: 0.151 for the first, -0.305 for the second.

Going from “HMQQNYREMHKVKKGETLFGIARRYEITVDQLIKANPDMNAVGYELKKGDYIFIPYPDGQKP” to “HMQRAEQLPAELAAVFRAETEAWGFFERQPPGYQRVAIHWVASAKQEATRLRRLAKLIEESAAGRR”, the “soluble fraction (log2)” value falls from -0.427 to -1.61.

Going from “HMQRDTIAISAIPTAIKTYLSSTYPTDTLVHAFVNKDQSIVVISKNIDFYATSFSTANAFIKRIQLPA” to “HMQRFIHITVSDVHQATRLLEEEMQLTNYSVAENNAIKIFEFTYEPQEINHLFGKNGIEVSSLFIGS”, the “soluble fraction (log2)” value rises from -1.41 to -0.0559.

For “HMQRNLILKLDTDQPEIYKKLESIFVEINGLLVPFFIEKIIWSKQDSLNILFKNSSEALVEQLIGKNVFLP”, the “soluble fraction (log2)” value was 0.2.
